US20120083001A1
Where two headings read alike, the source gives them in different places.

Experiments:
[1] = molecular target: β1 adrenergic receptor (rat) (UniProt P18090); experiment: cell-based or functional assay
[2] = molecular target: β1 adrenergic receptor (rat) (UniProt P18090); experiment: cell-based or functional assay; remark: listed apart in the source

β1 adrenergic receptor (rat), sequence (P18090 whole entry): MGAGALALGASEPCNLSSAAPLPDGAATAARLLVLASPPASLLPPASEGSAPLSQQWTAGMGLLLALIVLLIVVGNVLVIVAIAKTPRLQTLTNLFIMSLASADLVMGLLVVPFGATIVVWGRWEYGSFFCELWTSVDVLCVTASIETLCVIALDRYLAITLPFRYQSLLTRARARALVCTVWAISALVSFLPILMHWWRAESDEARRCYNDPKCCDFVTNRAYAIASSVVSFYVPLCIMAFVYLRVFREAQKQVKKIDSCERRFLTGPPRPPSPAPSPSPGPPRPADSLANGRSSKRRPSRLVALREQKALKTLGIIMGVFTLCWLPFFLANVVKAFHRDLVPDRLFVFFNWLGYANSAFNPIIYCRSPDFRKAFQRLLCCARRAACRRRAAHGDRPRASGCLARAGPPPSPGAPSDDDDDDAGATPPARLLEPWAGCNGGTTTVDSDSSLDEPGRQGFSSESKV

Change Level in Current Density [pA/pF] (ISO 30 nM against no ISO) [1]: -9.14 pA/pF | Change Level in Current Density [pA/pF] (ISO 30 nM against no ISO) [2]: -16.4 pA/pF | Current Change Level [nA] [2]: -0.2 nA | membrane current value immediately after the pulse, ISO not supplied (whole-cell patch clamp) [2]: -0.2 nA | membrane current value, ISO supplied (whole-cell patch clamp) [2]: 0.5 nA
Substance: Gαi (C351G) (from UniProt B2RSH2 2-354)
